Laboratory results: paper PMC3115021, “Dynamics of Cdk1 Substrate Specificity during the Cell Cycle” (Molecular Cell, 2011)

How the values were obtained:
Test in all cases: Quantitative phosphorylation assay of T33-Sic1ΔC constructs and recombinant substrates
Assay type in all cases: biochemical
Clb2-Cdk1 = biological target: T1, Clb2-Cdk1 (Saccharomyces cerevisiae, UniProt P00546+P24869); conditions: Table S2; purified protein substrate; relative values, not divided by [S]
T1 construct: We purified the four cyclin-Cdk1 complexes from yeast; made in house; host or cells: S. cerevisiae strain DOM0077 (gal-CLB2-TAP, sic1 deleted); Cks1 from bacteria
T1 sequence (P00546 2-298 limits assumed): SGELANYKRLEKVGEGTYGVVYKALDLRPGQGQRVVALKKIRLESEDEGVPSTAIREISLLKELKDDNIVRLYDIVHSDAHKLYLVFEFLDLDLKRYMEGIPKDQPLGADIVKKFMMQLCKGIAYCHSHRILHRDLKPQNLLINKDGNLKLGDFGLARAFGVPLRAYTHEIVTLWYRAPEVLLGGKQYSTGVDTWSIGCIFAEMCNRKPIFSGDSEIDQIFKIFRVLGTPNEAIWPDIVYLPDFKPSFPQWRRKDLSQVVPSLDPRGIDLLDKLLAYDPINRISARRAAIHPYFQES
T1 sequence (P24869 2-491 partner limits assumed): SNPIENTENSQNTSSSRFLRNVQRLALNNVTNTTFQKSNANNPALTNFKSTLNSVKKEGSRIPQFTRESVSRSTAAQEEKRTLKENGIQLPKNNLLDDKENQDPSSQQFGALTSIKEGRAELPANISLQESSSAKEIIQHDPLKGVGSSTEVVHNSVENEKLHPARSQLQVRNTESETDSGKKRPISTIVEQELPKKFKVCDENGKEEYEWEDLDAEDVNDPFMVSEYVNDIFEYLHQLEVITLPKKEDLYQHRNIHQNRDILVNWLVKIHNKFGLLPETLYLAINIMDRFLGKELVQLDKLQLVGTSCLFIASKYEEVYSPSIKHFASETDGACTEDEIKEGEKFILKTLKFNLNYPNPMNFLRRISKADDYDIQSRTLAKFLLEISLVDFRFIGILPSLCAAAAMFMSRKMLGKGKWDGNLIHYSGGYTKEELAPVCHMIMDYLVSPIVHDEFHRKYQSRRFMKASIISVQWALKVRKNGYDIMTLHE
T1 sequence (P20486 whole entry partner): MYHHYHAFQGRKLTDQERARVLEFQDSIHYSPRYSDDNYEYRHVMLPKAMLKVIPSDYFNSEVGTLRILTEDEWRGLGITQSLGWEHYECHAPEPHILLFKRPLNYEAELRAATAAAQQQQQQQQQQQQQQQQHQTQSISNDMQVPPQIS
Description: (§1) For the quantitative phosphorylation assays of T33-Sic1ΔC constructs and recombinant substrates, substrate concentrations were kept in the range of 0.5–2 μM (in the linear [S] versus v0 range, several-fold below the estimated KM value), and initial velocity conditions were defined as an initial substrate turnover of up to 10% of the total turnover. For the steady-state peptide kinetics of the Histone peptide PKTPKKAKKL, a similar assay composition was used as for protein substrates, and phosphocellulose paper was used for the quantification of the phosphorylated substrate. […]
(§2) similar substrate specificity as the Cln2-Cdk1 version purified using a TAP-tag. N-terminally 6His-tagged recombinant T33-Sic1ΔC constructs and substrates were cloned into the pET28a vector and purified by standard cobalt affinity chromatography and elution with 200 mM imidazole. 6His-Fin1 was purified as described previously (Woodbury and Morgan, 2007). Substrates cloned into the pGEX-4T-1 were purified on glutathione agarose columns using 5 mM reduced glutathione for elution. Cks1 was purified as described previously (Reynard et al., 2000). The optimal working concentration for purified Cks1 was taken as 500 nM based on optimization performed for cyclin-Cdk1 preparations and T33-Sic1ΔC as a substrate.
(§3) For the quantitative phosphorylation assays of T33-Sic1ΔC constructs and recombinant substrates, substrate concentrations were kept in the range of 0.5-2 μM (in the linear [S] vs v0 range, several-fold below the estimated KM value), and the initial velocity conditions were defined as an initial substrate turnover ranging up to 10% of the total turnover. The latter was estimated by a long-term incubation with excess amounts of cyclin-Cdk1 and 32P-γ-ATP in the standard reaction mixture given below. About 1-10 nM of purified kinase complex was used, reaction aliquots were taken at two or more time points, and the reaction was stopped by SDS-PAGE sample buffer. The relative kcat/KM values for the substrates were calculated as the ratio of v0/[S], which was determined from at least two independent experiments. The basal composition of the assay mixture contained 50 mM Hepes, pH 7.4, 100 mM NaCl, 0.1% NP-40, 20 mM imidazole, 0.1 mg/ml 2HA peptide, 2% glycerol, 2 mM EGTA, 0.2 mg/ml BSA, […], and 500 μM ATP (with added 32P-γ-ATP (Perkin Elmer)).
(§4) About 1-10 nM of purified kinase complex was used, reaction aliquots were taken at two or more time points, and the reaction was stopped by SDS-PAGE sample buffer. For the steady-state peptide kinetics of the Histone peptide PKTPKKAKKL, a similar assay composition was used as for protein substrates and the standard phosphocellulose method was applied for the quantification of the phosphorylated substrate (Loog and Morgan, 2005). Synthetic peptides as competitor agents were used in 4 mM final concentrations. […]

Clb3-Cdk1 = biological target: T2, Clb3-Cdk1 (Saccharomyces cerevisiae, UniProt P00546+P24870); conditions: Table S2; purified protein substrate; relative values, not divided by [S]
T2 construct: We purified the four cyclin-Cdk1 complexes from yeast; made in house; host or cells: S. cerevisiae strain DOM0957 (gal-CLB3-TAP, sic1 deleted); Cks1 from bacteria
T2 sequence (P00546 2-298 limits assumed): as the sequence (P00546 2-298 limits assumed) above
T2 sequence (P24870 whole entry partner): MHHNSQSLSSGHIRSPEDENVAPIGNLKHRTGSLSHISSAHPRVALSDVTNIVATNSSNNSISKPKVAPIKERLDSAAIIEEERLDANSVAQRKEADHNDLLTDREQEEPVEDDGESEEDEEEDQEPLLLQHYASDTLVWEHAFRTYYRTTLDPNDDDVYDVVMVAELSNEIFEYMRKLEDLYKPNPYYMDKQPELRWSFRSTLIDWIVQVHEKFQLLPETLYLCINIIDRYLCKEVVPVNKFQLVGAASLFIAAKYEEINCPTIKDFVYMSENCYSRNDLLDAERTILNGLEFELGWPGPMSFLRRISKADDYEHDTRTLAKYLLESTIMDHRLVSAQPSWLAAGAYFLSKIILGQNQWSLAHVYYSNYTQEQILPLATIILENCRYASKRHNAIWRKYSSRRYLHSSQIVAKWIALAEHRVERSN
T2 sequence (P20486 whole entry partner): as the sequence (P20486 whole entry partner) above
Description: as §1, §2, §3, §4

Cln2-Cdk1 = biological target: T3, Cln2-Cdk1 (Saccharomyces cerevisiae, UniProt P00546+P20438); conditions: for kcat/KM, Cln2: Table S2, purified protein substrate, relative values, not divided by [S]
T3 construct: We purified the four cyclin-Cdk1 complexes from yeast; made in house; host or cells: S. cerevisiae strain DMY305 (galactose-induced); Cks1 from bacteria
T3 sequence (P00546 2-298 limits assumed): as the sequence (P00546 2-298 limits assumed) above
T3 sequence (P20438 whole entry partner): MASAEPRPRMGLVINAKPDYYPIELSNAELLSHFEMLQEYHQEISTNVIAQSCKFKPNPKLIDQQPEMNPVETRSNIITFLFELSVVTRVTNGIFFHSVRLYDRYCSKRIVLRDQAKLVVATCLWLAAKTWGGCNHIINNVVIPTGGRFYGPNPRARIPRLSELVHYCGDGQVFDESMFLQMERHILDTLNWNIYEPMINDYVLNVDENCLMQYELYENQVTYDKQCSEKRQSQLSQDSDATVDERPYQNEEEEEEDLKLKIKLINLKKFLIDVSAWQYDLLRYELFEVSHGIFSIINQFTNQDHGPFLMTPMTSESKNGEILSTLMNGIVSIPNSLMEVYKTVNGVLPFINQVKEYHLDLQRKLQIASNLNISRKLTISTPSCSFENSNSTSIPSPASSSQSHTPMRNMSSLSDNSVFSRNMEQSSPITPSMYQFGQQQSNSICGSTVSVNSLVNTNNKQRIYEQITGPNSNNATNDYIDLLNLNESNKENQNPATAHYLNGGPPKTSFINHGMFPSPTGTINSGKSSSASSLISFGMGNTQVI
T3 sequence (P20486 whole entry partner): as the sequence (P20486 whole entry partner) above
Description: as §1, §2, §3, §4

Clb5-Cdk1 = biological target: T4, Clb5-Cdk1 (Saccharomyces cerevisiae, UniProt P00546+P30283); conditions: for kcat/KM, Clb5: Table S2, purified protein substrate, relative values, not divided by [S]; for effect of competitor peptide on Clb5-dependent phosphorylation of Sic1ΔC: synthetic competitor peptide 4 mM, result in words
T4 construct: We purified the four cyclin-Cdk1 complexes from yeast; made in house; host or cells: S. cerevisiae strain DOM0076 (gal-CLB5-TAP, sic1 deleted); Cks1 from bacteria
T4 sequence (P00546 2-298 limits assumed): as the sequence (P00546 2-298 limits assumed) above
T4 sequence (P30283 whole entry partner): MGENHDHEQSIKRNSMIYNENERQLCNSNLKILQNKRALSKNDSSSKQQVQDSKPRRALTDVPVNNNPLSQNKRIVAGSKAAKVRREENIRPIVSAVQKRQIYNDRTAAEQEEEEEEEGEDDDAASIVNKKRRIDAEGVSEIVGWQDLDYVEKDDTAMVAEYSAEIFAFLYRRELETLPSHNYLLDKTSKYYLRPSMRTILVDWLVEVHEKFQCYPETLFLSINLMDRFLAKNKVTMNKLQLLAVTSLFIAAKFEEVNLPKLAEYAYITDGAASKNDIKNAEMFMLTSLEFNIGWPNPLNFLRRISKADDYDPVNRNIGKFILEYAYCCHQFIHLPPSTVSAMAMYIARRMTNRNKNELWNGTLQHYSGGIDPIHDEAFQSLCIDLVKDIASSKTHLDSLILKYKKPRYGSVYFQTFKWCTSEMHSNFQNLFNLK
T4 sequence (P20486 whole entry partner): as the sequence (P20486 whole entry partner) above
Description: as §1, §2, §3, §4

[1] = synthetic competitor peptide 4 mM

| Molecule | kcat/KM, Clb2 (Clb2-Cdk1) | kcat/KM, Clb3 (Clb3-Cdk1) | kcat/KM, Cln2 (Cln2-Cdk1) | kcat/KM, Clb5 (Clb5-Cdk1) | effect of competitor peptide on Cln2-dependent phosphorylation of Sic1ΔC (Cln2-Cdk1; [1]) | effect of competitor peptide on Clb5-dependent phosphorylation of Sic1ΔC (Clb5-Cdk1) | effect of competitor peptide on Cln2 docking / Cln2-dependent phosphorylation of Sic1ΔC (Cln2-Cdk1; synthetic competitor peptide 4 mM, result in words) |
| --- | --- | --- | --- | --- | --- | --- | --- |
| RTT109: purified yeast protein tested as Cdk1 substrate | 0.080 relative units | 0.027 relative units | 0.067 relative units | 0.010 relative units | – | – | – |
| RVNAIAFPT [AXL peptide, similar peptide in which the arginine of the RXL motif was replaced with alanine] | – | – | – | – | 3- to 4 fold | only the RXL peptide reduces the specificity of Clb5 | – |
| RVNRILFPT [synthetic peptide based on the RXL2 motif of Sic1] | – | – | – | – | 3- to 4 fold | had an effect on Clb5-dependent phosphorylation | – |
| VLLPPSRPTS [LP peptide] | – | – | – | – | – | – | competitive inhibitor of the docking |
| BOP3: purified yeast protein tested as Cdk1 substrate (protein, UniProt P53958 1-396, looked up) Protein BOP3: MSTFNSYSQPKESNDNSHNNVNKSKSLLDIIFGTNVSEWAFSENALMKAMDLKIEQEKTKQQYYKLENLNRSIELFKLASSSGLPINQIHKLFNTDHGVPASSPMKAGGNQPHNNTEGTQSSENLPRLNGSMKSLKPLNMNTVSPTPMSRQPSPYKFPASSSTGGISHSTVTNVQRRANSPARIGASAVAALNDNISIKEEDVARRIPSGTKSQESPLNKKPTSLHSRNLSLPIGKFTNPNIPSTMTSILSFNRDQQQPLSQPLPPPPQQQQDLHTHNLHTIPRKPGMVQKKHRRARSTSSFGVIDLSIIDEAKEKQVQRSPSPIHSNVSVALTSHDKPIESNMKEQPNMLQSVREGRQVHDDLDDRTCSESSSRNESPVRTITKDNSVGKILNST | 0.109 relative units | 0.101 relative units | 0.521 relative units | 0.027 relative units | – | – | – |
| YOX1: purified yeast protein tested as Cdk1 substrate (protein, UniProt P34161 1-385, looked up) Homeobox protein YOX1: MSQETKMLPSLSSLLSGTEISSSPVSPSFTNPRTSFHLDDRGTIKLPPLNTSINRPRSVESALRHTVTSLHENSSAYGDDMLKHTQSDSALSSQLNSSQETVDESHENLLLTPLNSKKRDYSVSSKKNDILTPLSAAKSIIIPSASKEKRRAFAFITHSQETFPKKEPKIDNAPLARRKRRRTSSQELSILQAEFEKCPAPSKEKRIELAESCHMTEKAVQIWFQNKRQAVKRQRIATSKSTTIIQTVSPPSPPLDVHATPLASRVKADILRDGSSCSRSSSSSPLENTPPRPHHSLNRRSSTPSIKRSQALTFHLNPQKKTLTPVKTSPNSRVNKLINSIDHSPSKAKRPVSNPSGSPKRKRKFGFKIVDQQPLKDLDPNAFRG | 4.536 relative units | 2.094 relative units | 0.584 relative units | 0.244 relative units | – | – | – |
| STB1: purified yeast protein, Cln2-specific Cdk1 target (protein, UniProt P42845 2-420, looked up) Protein STB1: SQPQMSPEKEQELASKILHRAELAQMTRQLKLGLSNVPSTKRKQDSTTKKRSGEDAEDVDEDHKTLLEAISPAKKPLHDDTNKMTVISPVKFVEKPNTPPSSRQRKAEDRSQQIKPRKEDTPSTPRASATPIILPHASSHYQRPHDKNFMTPKRNNNNSSNHSNNNNNIKKKAAGSKDAPQDSDNTAGADLLMYLATSPYNKSSHHGTPMAVRMPTTPRSYHYASQLSLNGNTASTSNDAVRFSHIKPSASSPQSTFKSNLLPNFPDESLMDSPSLYLSNNNGSVQATLSPQQRRKPTTNTLHPPSNVPTTPSRELNGTNFNLLRTPNFNMGDYLHNLFSPSPRVPAQQGASNTSASIPSVPAMVPGSSSNTSAIATAAISSHTTNNFLDMNANGIPLIVGPGTDRIGEGESIDDKLTD | 0.878 relative units | 0.622 relative units | 2.011 relative units | 0.191 relative units | – | – | – |
| TOS8: purified yeast protein tested as Cdk1 substrate (protein, UniProt P53147 1-276, looked up) Homeobox protein TOS8: MGTSIVNLNQKIELPPIQVLFESLNRENETKPHFEERRLYQPNPSFVPRTNIAVGSPVNPVPVSSPVFFIGPSPQRSIQNHNAIMTQNIRQYPVIYNNNREVISTGERNYIITVGGPPVTSSQPEYEHISTPNFYQEQRLAQPHPVNESMMIGGYTNPQPISISRGKMLSGNISTNSVRGSNNGYSAKEKKHKAHGKRSNLPKATVSILNKWLHEHVNNPYPTVQEKRELLAKTGLTKLQISNWFINARRRKIFSGQNDANNFRRKFSSSTNLAKF | 0.254 relative units | 0.276 relative units | 2.830 relative units | 0.069 relative units | – | – | – |
| MSA1: purified yeast protein tested as Cdk1 substrate (protein, UniProt Q08471 1-629, looked up) G1-specific transcription …: MDKSMIKKRGRPPITKDYPNPLQSPMAHSSMQVQKQGPHSFAKPLMKVGQSSPSPNKRRLSIDHHHNLAATTRKGRYRGVLLSTPTKKSSTNGSTPISTPSSNDSYNNTVFSETRKTFLQSSPPIMTSSPAFQKKNDYMFPSQEQFKLSLTITESGKAVIAGSLPFSPSSKSSHLMNNNNKKIMQNEKIHKGSKKNAPKFEKRRILSLLKQMKNEKYCDTDTLPEAPPAKPSRSDIIDTELPTIIETSASPIGSARNNNILLSQPPQSPPSSAQLKPPSTPKSSLQFRMGFTPNVALNSVSLSDTISKSTNAVGASNNNNQNGNSISNIADANTLLTLTNSPGVFLSPRNKMLPKSTTASNEQQQEFVFKFSSGDPLLLTDDADGNWPEMLFNVSNTPRRQKCFNTPPSWINFGSPGLFSPPRSSNVMVNGTTVATASDSGNVHRQLQAQLEAQVQVQSQSNSPTQRQQQQRQFQIPPPHINMNSSPPQINIASPPHQSMSRVSSIYFNKEKTTTGVANMLGNTKSENLQPPANLFTAAHGPSTPRNQEFQLPTLIECTPLIQQTMNGSLGTKYIPGTSISNSATPNLHGFPVGTGKAPSSFDDSLKQNPYSNKQDDARTALKRLIDDQ | 0.034 relative units | 0.043 relative units | 0.157 relative units | 0.024 relative units | – | – | – |
| ACE2: purified yeast protein tested as Cdk1 substrate (protein, UniProt P21192 1-770, looked up) Metallothionein expression …: MDNVVDPWYINPSGFAKDTQDEEYVQHHDNVNPTIPPPDNYILNNENDDGLDNLLGMDYYNIDDLLTQELRDLDIPLVPSPKTGDGSSDKKNIDRTWNLGDENNKVSHYSKKSMSSHKRGLSGTAIFGFLGHNKTLSISSLQQSILNMSKDPQPMELINELGNHNTVKNNNDDFDHIRENDGENSYLSQVLLKQQEELRIALEKQKEVNEKLEKQLRDNQIQQEKLRKVLEEQEEVAQKLVSGATNSNSKPGSPVILKTPAMQNGRMKDNAIIVTTNSANGGYQFPPPTLISPRMSNTSINGSPSRKYHRQRYPNKSPESNGLNLFSSNSGYLRDSELLSFSPQNYNLNLDGLTYNDHNNTSDKNNNDKKNSTGDNIFRLFEKTSPGGLSISPRINGNSLRSPFLVGTDKSRDDRYAAGTFTPRTQLSPIHKKRESVVSTVSTISQLQDDTEPIHMRNTQNPTLRNANALASSSVLPPIPGSSNNTPIKNSLPQKHVFQHTPVKAPPKNGSNLAPLLNAPDLTDHQLEIKTPIRNNSHCEVESYPQVPPVTHDIHKSPTLHSTSPLPDEIIPRTTPMKITKKPTTLPPGTIDQYVKELPDKLFECLYPNCNKVFKRRYNIRSHIQTHLQDRPYSCDFPGCTKAFVRNHDLIRHKISHNAKKYICPCGKRFNREDALMVHRSRMICTGGKKLEHSINKKLTSPKKSLLDSPHDTSPVKETIARDKDGSVLMKMEEQLRDDMRKHGLLDPPPSTAAHEQNSNRTLSNETDAL | 0.069 relative units | 0.029 relative units | 0.025 relative units | 0.004 relative units | – | – | – |
